Assay results taken from publication PMC6245935, “Fructose-1,6-bisphosphate aldolase encoded by a core gene of Mycoplasma hyopneumoniae contributes to host cell adhesion” (Veterinary Research, 2018).

Target: fibronectin (UniProt P02751 32-2477)
Test: SPR; BIAcore X100 Plus; fibronectin amine-coupled to CM5 chip (2868 RU); rFBA analyte 0-100 ug/mL in HBS-EP (10 mM HEPES, 150 mM NaCl, 3 mM EDTA, 0.05% P20), 30 uL/min, 180 s association, 1000 s dissociation, 20 °C
Conditions: both partners purified

Chain of fibronectin (P02751 32-2477): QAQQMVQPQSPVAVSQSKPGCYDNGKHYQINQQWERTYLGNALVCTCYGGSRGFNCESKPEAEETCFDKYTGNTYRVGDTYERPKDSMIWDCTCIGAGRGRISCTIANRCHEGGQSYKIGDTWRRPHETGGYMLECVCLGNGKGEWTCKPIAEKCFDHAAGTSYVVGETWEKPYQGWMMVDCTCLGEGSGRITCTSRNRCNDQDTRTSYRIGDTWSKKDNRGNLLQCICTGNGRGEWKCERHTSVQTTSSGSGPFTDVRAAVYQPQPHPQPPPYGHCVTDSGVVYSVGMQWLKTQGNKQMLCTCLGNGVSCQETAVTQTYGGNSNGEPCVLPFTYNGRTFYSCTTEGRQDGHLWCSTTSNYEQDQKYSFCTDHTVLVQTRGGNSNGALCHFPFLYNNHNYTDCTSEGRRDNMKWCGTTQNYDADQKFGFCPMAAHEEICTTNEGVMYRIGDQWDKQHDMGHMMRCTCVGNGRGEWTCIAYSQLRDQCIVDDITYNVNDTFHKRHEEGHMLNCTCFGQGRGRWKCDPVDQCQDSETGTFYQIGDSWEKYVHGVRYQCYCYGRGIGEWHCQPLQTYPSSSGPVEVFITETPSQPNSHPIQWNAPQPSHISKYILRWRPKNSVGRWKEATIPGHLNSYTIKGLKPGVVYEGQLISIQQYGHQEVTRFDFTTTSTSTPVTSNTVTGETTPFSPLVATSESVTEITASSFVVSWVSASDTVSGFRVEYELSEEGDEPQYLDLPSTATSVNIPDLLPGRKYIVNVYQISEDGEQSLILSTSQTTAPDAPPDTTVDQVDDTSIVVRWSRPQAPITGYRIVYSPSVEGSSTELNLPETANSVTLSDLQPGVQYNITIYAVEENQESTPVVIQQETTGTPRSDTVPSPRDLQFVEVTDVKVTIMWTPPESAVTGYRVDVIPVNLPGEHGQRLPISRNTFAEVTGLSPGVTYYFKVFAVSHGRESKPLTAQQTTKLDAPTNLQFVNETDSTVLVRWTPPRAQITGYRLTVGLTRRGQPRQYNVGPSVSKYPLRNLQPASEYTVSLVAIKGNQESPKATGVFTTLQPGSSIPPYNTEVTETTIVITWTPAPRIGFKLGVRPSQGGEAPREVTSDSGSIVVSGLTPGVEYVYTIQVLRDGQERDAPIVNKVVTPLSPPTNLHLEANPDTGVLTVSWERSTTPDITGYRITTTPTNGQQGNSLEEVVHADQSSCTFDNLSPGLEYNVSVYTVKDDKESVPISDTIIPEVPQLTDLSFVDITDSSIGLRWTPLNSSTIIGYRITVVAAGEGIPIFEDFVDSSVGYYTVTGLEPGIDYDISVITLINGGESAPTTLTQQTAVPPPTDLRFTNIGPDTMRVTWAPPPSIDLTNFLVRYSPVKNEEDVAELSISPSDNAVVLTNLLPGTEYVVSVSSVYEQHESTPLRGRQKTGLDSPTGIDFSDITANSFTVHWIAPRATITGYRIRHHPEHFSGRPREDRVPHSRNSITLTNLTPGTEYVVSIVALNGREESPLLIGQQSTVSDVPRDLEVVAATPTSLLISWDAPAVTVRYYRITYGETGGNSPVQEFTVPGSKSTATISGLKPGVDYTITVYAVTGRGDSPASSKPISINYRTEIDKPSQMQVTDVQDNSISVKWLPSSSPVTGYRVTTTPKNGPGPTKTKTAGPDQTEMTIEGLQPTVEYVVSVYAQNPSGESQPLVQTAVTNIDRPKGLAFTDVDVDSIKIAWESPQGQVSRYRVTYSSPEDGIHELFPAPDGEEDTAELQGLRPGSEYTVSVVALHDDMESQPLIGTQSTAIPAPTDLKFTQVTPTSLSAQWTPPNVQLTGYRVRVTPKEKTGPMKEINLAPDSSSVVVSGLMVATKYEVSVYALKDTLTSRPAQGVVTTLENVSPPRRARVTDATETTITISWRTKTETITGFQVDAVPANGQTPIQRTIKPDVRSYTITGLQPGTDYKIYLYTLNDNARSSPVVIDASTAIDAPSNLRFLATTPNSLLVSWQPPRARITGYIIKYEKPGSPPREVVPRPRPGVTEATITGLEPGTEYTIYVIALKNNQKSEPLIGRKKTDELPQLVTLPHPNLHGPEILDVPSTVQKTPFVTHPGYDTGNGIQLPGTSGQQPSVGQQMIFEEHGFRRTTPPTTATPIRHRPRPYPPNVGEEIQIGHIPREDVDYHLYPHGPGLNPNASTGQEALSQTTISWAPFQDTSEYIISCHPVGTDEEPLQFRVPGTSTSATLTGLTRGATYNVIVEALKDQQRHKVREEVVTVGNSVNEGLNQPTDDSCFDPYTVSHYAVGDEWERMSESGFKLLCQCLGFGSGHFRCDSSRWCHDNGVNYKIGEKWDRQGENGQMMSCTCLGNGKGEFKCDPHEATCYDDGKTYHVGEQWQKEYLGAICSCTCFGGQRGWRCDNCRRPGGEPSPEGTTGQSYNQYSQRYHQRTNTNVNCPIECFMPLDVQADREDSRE

B1: recombinant fructose-1,6-bisphosphate aldolase (rFBA) of Mycoplasma hyopneumoniae strain 168 (enzyme)
chain: MKTIISIAIDFLKNRESAHFSDIFLEVQTSLMSKWENQLPNLSTDKILTLKRGELYKLLSIDGNFVPLGDNYWTLRSDLNALVFFFFFFLKVFDCKKKKKKYRKGKMQLVNTKEMLEKALKNNYAIPHININNLEWTKAALLAAQAKKSPLIIGTSERVLTYMGGLKTIYNLVTNLIDYFKITVPVALHLDHGTYLTCKEALKNGYTSVMYDGSKEKFELNLERTEEIVRLANKVNATVEAEVGQIGGEEDGVIGNGEIANPENAKKITETGITCLAAGIGNIHGIYPPDWKSLNFEILEKISKVTKIPLVLHGGSGIPKDQIQKAIKLGIAKINVNTELQQANAAAISEFVLSGKVKQGKNFDPRKLLAPGTDAIQLLIEEKITEFGSANQA
notes: Fructose-1,6-bisphosphate aldolase (FBA) of Mycoplasma hyopneumoniae strain 168, full-length fba gene, locus MHP168_014, GenBank ADQ90241.1; The gene was cloned by site-directed mutation and overlap extension PCR 'due to the existence of rare codons'; also called fructose-bisphosphate aldolase; source: Escherichia coli BL21 (DE3), purified by Ni-chelating chromatography
  Kd: 468 ± 23 nM
  kon: 3470 ± 580 M⁻¹ s⁻¹
